The target in experiment [1] is ACE-2 receptor on Vero e6 cells (African green monkey (Vero e6 cells)).
The target is the same in experiment [2]. Description: two-color confocal microscopy, co-localization on Vero e6 cells (n=10 analyses).

Read-outs that look alike come from different tables or passages of the source.

In experiment [1], “plant-produced recombinant H7 strain influenza HA protein” registered a particles per field (particles per field) of 122. Turning to “angiotensin II (from UniProt P01019 25-32) (peptide)”, in experiment [2], the fold increase over the non-specific H7 control worked out at 2.79 fold and the particles per field (particles per field) stood at 452.

The record behind these values is patent US20230149532A1.
